This is an account of results in US20240158496A1 (Johns Hopkins, published 2024).

The target in assay [1] is T1, recombinant human (rh) CEACAM-1 (human, UniProt P13688 35-428, limits assumed).
T1 construct: Recombinant protein used in the in vitro protein A pull-down
T1 sequence (looked up): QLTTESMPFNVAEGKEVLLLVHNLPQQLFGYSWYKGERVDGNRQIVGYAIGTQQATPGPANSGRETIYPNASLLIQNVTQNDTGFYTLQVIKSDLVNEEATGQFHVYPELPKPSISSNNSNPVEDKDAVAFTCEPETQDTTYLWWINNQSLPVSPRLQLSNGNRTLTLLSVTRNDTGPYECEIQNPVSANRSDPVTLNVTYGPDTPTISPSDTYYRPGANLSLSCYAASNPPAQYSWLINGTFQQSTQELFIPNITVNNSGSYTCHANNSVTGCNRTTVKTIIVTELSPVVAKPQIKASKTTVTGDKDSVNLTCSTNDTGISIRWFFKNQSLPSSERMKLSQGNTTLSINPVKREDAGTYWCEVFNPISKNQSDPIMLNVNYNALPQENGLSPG
As to the kind of experiment: protein A-agarose pull-down, CEACAM1 immunoblot. As for the experimental part: The precipitated complexes were washed with immunoprecipitation buffer, re-suspended in NuPAGE sample buffer with reducing agent, boiled, resolved on a Bis-Tris Criterion XT Gel system and transferred to a PVDF membrane. Membranes were immunoblotted with primary antibodies [CEACAM1 (D1P4T); TIM3 (D5D5R™)] overnight, washed, incubated with secondary antibodies and visualized by Amersham ECL Western Blotting Detection Reagents. […] This assay is also used to evaluate the binding of any antibody-ligand trap comprising a ligand-binding sequence of a ligand-binding sequence of TIM-3 ectodomain(TIM-3ecd) to rh CEACAM-1.
On the technique in general: In western blotting, separated proteins are transferred to a membrane and probed.

Assay [2] has as its target T2, CEACAM-1 on co-stimulated human T cells (human, UniProt P13688 35-526).
T2 construct: whole, on cells; Endogenous protein
T2 sequence (looked up): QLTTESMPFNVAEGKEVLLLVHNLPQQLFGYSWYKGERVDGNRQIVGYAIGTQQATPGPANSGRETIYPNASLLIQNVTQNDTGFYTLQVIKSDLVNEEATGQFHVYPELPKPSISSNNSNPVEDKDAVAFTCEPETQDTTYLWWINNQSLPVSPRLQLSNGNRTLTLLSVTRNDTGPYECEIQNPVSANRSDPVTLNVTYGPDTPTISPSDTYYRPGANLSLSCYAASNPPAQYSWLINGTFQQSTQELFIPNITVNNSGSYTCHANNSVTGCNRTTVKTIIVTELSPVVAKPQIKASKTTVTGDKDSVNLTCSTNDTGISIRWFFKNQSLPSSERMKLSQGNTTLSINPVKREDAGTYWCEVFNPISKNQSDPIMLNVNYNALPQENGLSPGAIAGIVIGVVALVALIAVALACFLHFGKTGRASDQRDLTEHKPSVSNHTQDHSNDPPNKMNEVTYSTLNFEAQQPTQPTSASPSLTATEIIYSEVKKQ
As to the kind of experiment: protein A-agarose immunoprecipitation of lysates of co-stimulated human PBMC treated for 6 d, CEACAM1 immunoblot. Here is the method:
The precipitated complexes were washed with immunoprecipitation buffer, re-suspended in NuPAGE sample buffer with reducing agent, boiled, resolved on a Bis-Tris Criterion XT Gel system and transferred to a PVDF membrane. Membranes were immunoblotted with primary antibodies [CEACAM1 (D1P4T); TIM3 (D5D5R™)] overnight, washed, incubated with secondary antibodies and visualized by Amersham ECL Western Blotting Detection Reagents.

B1: α-PD1 mAb (nivolumab) (antibody)
heavy: not shown
light: not shown
notes: Parent antibody used as a control; also called α-PD1 antibody (nivolumab); a-PD1 mAb (nivolumab)
On to B1, for which the binding result is “no binding (tested: 10 µg antibody with 5 µg rhCEACAM-1)” in assay [1] and “no binding” in assay [2].
